Reference: patent US20100137420A1 (Johns Hopkins, published 2010)

B1: full-length cystatin C (13.4 kD peak) in human cerebrospinal fluid (other)
chain: SSPGKPPRLVGGPMDASVEEEGVRRALDFAVGEYNKASNDMYHSRALQVVRARKQIVAGVNYFLDVELGRTTCTKTQPNLDNCPFHDQPHLKRKAFCSFQIYAVPWQGTMTLSKSTCQDA
notes: also called biomarker J
B2: C-terminal cleavage product of cystatin C lacking the last 8 amino acids (12.5 kD peak) in human cerebrospinal fluid (other)
chain: SSPGKPPRLVGGPMDASVEEEGVRRALDFAVGEYNKASNDMYHSRALQVVRARKQIVAGVNYFLDVELGRTTCTKTQPNLDNCPFHDQPHLKRKAFCSFQIYAVPWQGTMTL
notes: Endogenous fragment in CSF of MS/CIS patients; also called biomarker A

Biological target: T1, protein A beads (UniProt P38507 37-477)
T1 construct: Used alone as a control in the immunodepletion; also called protein A beads alone
Test: CSF incubated with protein A beads alone, SELDI-TOF read-out
Experimental: 20 μl of rabbit anti-human cystatin C or rabbit anti-fusin antisera (DakoCytomation, Carpinteria, Calif.) was bound to 10 μl of protein A beads equilibrated in PBS, pH 7.4, by rocking at room temperature for 1 hr. 10 μl of equilibrated protein A beads alone were used as another control. Each sample was washed three times with PBS pH=7.4. […] 30 μl of this CSF was added to each of the above sample and rocked for 1 hr at room temperature. 15 μl of the supernatant was applied to CM-10 arrays and analyzed as described above.

Row | Binder | binding result
1 | B1 | no binding
2 | B2 | no binding
